Results on 1 molecule are retold here after PMC8622166.

One assay has as its target RAC3 (human), P60763. The assay can be described thus: stopped-flow fluorimetry; kon from kobs against increasing GDI concentrations mixed with 0.2 µM mdGDP-bound RHO GTPase; koff by displacement with excess unlabeled GDP-bound RHO protein; Kd = koff/kon; 25 °C, 30 mM Tris/HCl pH 7.5, 10 mM K2HPO4/KH2PO4 pH 7.5, 5 mM MgCl2, 3 mM DTT. The note with it: remark: other sources report otherwise.

The next assay deals with RAC2 (human), P15153. Described as above. The note with it: remark: other sources report otherwise.

A value given as a limit tells only on which side of the number the result lay.

B1: GDI2, P52566 1-201 (natural protein)
chain: MTEKAPEPHVEEDDDDELDSKLNYKPPPQKSLKELQEMDKDDESLIKYKKTLLGDGPVVTDPKAPNVVVTRLTLVCESAPGPITMDLTGDLEALKKETIVLKEGSEYRVKIHFKVNRDIVSGLKYVQHTYRTGVKVDKATFMVGSYGPRPEEYEFLTPVEEAPKGMLARGTYHNKSFFTDDDKQDHLSWEWNLSIKKEWTE
As usually defined, the Kd is the concentration at which binding is half-saturated. Low values mean tighter binding, high ones weaker binding. As to B1, in the assay with RAC3 (human), P60763, the fold faster kon than GDI1 was > 10 fold and the fold slower koff than GDI1 was < 4 fold. Also, in the assay with RAC2 (human), P15153, the Kd amounted to 18.8 µM.
